Reference: the MegaScale stability set (Tsuboyama et al. 2023)

B1: 2K2A (parent)
chain: ELREAFRLYDKEGNGYISTDVMREILAELDETLSSEDLDAMIDEIDADGSGTVDFEEFMGVMT

Variants of: B1
Assay: folding stability dG (cDNA display proteolysis); higher = more stable
Details: PBS, room temperature
For ELREAFRLYDQEGNGYISTDVMREILAELDETLSSEDLDAMIDEIDADGSGTVDFEEFMGVMT [K11Q], the “folding stability dG” value was 1.72 kcal/mol.
With ELREAFRLYDPEGNGYISTDVMREILAELDETLSSEDLDAMIDEIDADGSGTVDFEEFMGVMT [K11P] the “folding stability dG” value was 1.81 kcal/mol.
For ELREAFRLYDIEGNGYISTDVMREILAELDETLSSEDLDAMIDEIDADGSGTVDFEEFMGVMT [K11I], the “folding stability dG” value was 2.01 kcal/mol.
In the case of ELREAFRLYDTEGNGYISTDVMREILAELDETLSSEDLDAMIDEIDADGSGTVDFEEFMGVMT [K11T], the “folding stability dG” value is reported as 1.94 kcal/mol.
For ELREAFRLYDMEGNGYISTDVMREILAELDETLSSEDLDAMIDEIDADGSGTVDFEEFMGVMT [K11M], the “folding stability dG” value was 1.77 kcal/mol.
For ELREAFRLYDAEGNGYISTDVMREILAELDETLSSEDLDAMIDEIDADGSGTVDFEEFMGVMT [K11A], the “folding stability dG” value was 1.74 kcal/mol.
With ELREAFRLYDGEGNGYISTDVMREILAELDETLSSEDLDAMIDEIDADGSGTVDFEEFMGVMT [K11G] the “folding stability dG” value was 1.03 kcal/mol.
For ELREAFRLYDFEGNGYISTDVMREILAELDETLSSEDLDAMIDEIDADGSGTVDFEEFMGVMT [K11F], the “folding stability dG” value was 1.82 kcal/mol.
With ELREAFRLYDSEGNGYISTDVMREILAELDETLSSEDLDAMIDEIDADGSGTVDFEEFMGVMT [K11S] the “folding stability dG” value was 1.74 kcal/mol.
For ELREAFRLYDEEGNGYISTDVMREILAELDETLSSEDLDAMIDEIDADGSGTVDFEEFMGVMT [K11E], the “folding stability dG” value was 1.36 kcal/mol.
With ELREAFRLYDCEGNGYISTDVMREILAELDETLSSEDLDAMIDEIDADGSGTVDFEEFMGVMT [K11C] the “folding stability dG” value was 2.07 kcal/mol.
For ELREAFRLYDLEGNGYISTDVMREILAELDETLSSEDLDAMIDEIDADGSGTVDFEEFMGVMT [K11L], the “folding stability dG” value was 2.13 kcal/mol.
With ELREAFRLYDNEGNGYISTDVMREILAELDETLSSEDLDAMIDEIDADGSGTVDFEEFMGVMT [K11N] the “folding stability dG” value was 1.4 kcal/mol.
With ELREAFRLYDHEGNGYISTDVMREILAELDETLSSEDLDAMIDEIDADGSGTVDFEEFMGVMT [K11H] the “folding stability dG” value was 1.69 kcal/mol.
In the case of ELREAFRLYDVEGNGYISTDVMREILAELDETLSSEDLDAMIDEIDADGSGTVDFEEFMGVMT [K11V], the “folding stability dG” value is reported as 2.1 kcal/mol.
With ELREAFRLYDDEGNGYISTDVMREILAELDETLSSEDLDAMIDEIDADGSGTVDFEEFMGVMT [K11D] the “folding stability dG” value was 0.997 kcal/mol.
With ELREAFRLYDREGNGYISTDVMREILAELDETLSSEDLDAMIDEIDADGSGTVDFEEFMGVMT [K11R] the “folding stability dG” value was 1.71 kcal/mol.
For ELREAFRLYAKEGNGYISTDVMREILAELDETLSSEDLDAMIDEIDADGSGTVDFEEFMGVMT [D10A], the “folding stability dG” value was 0.874 kcal/mol.
With ELREAFRLYHKEGNGYISTDVMREILAELDETLSSEDLDAMIDEIDADGSGTVDFEEFMGVMT [D10H] the “folding stability dG” value was -0.087 kcal/mol.
For ELREAFRLYLKEGNGYISTDVMREILAELDETLSSEDLDAMIDEIDADGSGTVDFEEFMGVMT [D10L], the “folding stability dG” value was 1.26 kcal/mol.
With ELREAFRLYMKEGNGYISTDVMREILAELDETLSSEDLDAMIDEIDADGSGTVDFEEFMGVMT [D10M] the “folding stability dG” value was 1.39 kcal/mol.
For ELREAFRLYQKEGNGYISTDVMREILAELDETLSSEDLDAMIDEIDADGSGTVDFEEFMGVMT [D10Q], the “folding stability dG” value was 0.395 kcal/mol.
With ELREAFRLYSKEGNGYISTDVMREILAELDETLSSEDLDAMIDEIDADGSGTVDFEEFMGVMT [D10S] the “folding stability dG” value was 0.55 kcal/mol.
For ELREAFRLYIKEGNGYISTDVMREILAELDETLSSEDLDAMIDEIDADGSGTVDFEEFMGVMT [D10I], the “folding stability dG” value was 1.21 kcal/mol.
In the case of ELREAFRLYRKEGNGYISTDVMREILAELDETLSSEDLDAMIDEIDADGSGTVDFEEFMGVMT [D10R], the “folding stability dG” value is reported as -0.527 kcal/mol.
For ELREAFRLYEKEGNGYISTDVMREILAELDETLSSEDLDAMIDEIDADGSGTVDFEEFMGVMT [D10E], the “folding stability dG” value was 0.386 kcal/mol.
With ELREAFRLYCKEGNGYISTDVMREILAELDETLSSEDLDAMIDEIDADGSGTVDFEEFMGVMT [D10C] the “folding stability dG” value was 2.18 kcal/mol.
With ELREAFRLYFKEGNGYISTDVMREILAELDETLSSEDLDAMIDEIDADGSGTVDFEEFMGVMT [D10F] the “folding stability dG” value was 1.66 kcal/mol.
With ELREAFRLYGKEGNGYISTDVMREILAELDETLSSEDLDAMIDEIDADGSGTVDFEEFMGVMT [D10G] the “folding stability dG” value was 0.123 kcal/mol.
With ELREAFRLYYKEGNGYISTDVMREILAELDETLSSEDLDAMIDEIDADGSGTVDFEEFMGVMT [D10Y] the “folding stability dG” value was 1.15 kcal/mol.
In the case of ELREAFRLYVKEGNGYISTDVMREILAELDETLSSEDLDAMIDEIDADGSGTVDFEEFMGVMT [D10V], the “folding stability dG” value is reported as 0.886 kcal/mol.
For ELREAFRLYTKEGNGYISTDVMREILAELDETLSSEDLDAMIDEIDADGSGTVDFEEFMGVMT [D10T], the “folding stability dG” value was 0.563 kcal/mol.
In the case of ELREAFRLYNKEGNGYISTDVMREILAELDETLSSEDLDAMIDEIDADGSGTVDFEEFMGVMT [D10N], the “folding stability dG” value is reported as -0.227 kcal/mol.
In the case of ELREAFRLYWKEGNGYISTDVMREILAELDETLSSEDLDAMIDEIDADGSGTVDFEEFMGVMT [D10W], the “folding stability dG” value is reported as 1.4 kcal/mol.
With ELREAFRLPDKEGNGYISTDVMREILAELDETLSSEDLDAMIDEIDADGSGTVDFEEFMGVMT [Y9P] the “folding stability dG” value was 0.057 kcal/mol.
In the case of ELREAFRLRDKEGNGYISTDVMREILAELDETLSSEDLDAMIDEIDADGSGTVDFEEFMGVMT [Y9R], the “folding stability dG” value is reported as 1.32 kcal/mol.
For ELREAFRLMDKEGNGYISTDVMREILAELDETLSSEDLDAMIDEIDADGSGTVDFEEFMGVMT [Y9M], the “folding stability dG” value was 1.43 kcal/mol.
In the case of ELREAFRLVDKEGNGYISTDVMREILAELDETLSSEDLDAMIDEIDADGSGTVDFEEFMGVMT [Y9V], the “folding stability dG” value is reported as 0.891 kcal/mol.
For ELREAFRLWDKEGNGYISTDVMREILAELDETLSSEDLDAMIDEIDADGSGTVDFEEFMGVMT [Y9W], the “folding stability dG” value was 2 kcal/mol.
With ELREAFRLNDKEGNGYISTDVMREILAELDETLSSEDLDAMIDEIDADGSGTVDFEEFMGVMT [Y9N] the “folding stability dG” value was 0.71 kcal/mol.
With ELREAFRLTDKEGNGYISTDVMREILAELDETLSSEDLDAMIDEIDADGSGTVDFEEFMGVMT [Y9T] the “folding stability dG” value was 0.17 kcal/mol.
With ELREAFRLQDKEGNGYISTDVMREILAELDETLSSEDLDAMIDEIDADGSGTVDFEEFMGVMT [Y9Q] the “folding stability dG” value was 0.85 kcal/mol.
For ELREAFRLSDKEGNGYISTDVMREILAELDETLSSEDLDAMIDEIDADGSGTVDFEEFMGVMT [Y9S], the “folding stability dG” value was 0.532 kcal/mol.
